Laboratory results: patent US20210292423A1 (published 2021)
Where a chain is given by its changes, count along the chain named.

B1: 1E1-G5 anti-CD123 rat IgG (hybridoma supernatant) (antibody, V domains shown)
VH: QVQLQESGPTLVKPGDSVKMSCKAFGYTFTDHIIHWVKQSHGKSLEWIGYINPYSGGTNYNEKFKSKATLTVDKSSSTAYMEFSRLTSEDSAICYCALNYGSYYAMDAWGQGTSVTVSS
VL: DIQMTQSPASLSASLGQTVTIECRPSEDIYSNLAWFQQKPGSSPQLLIYDANNLADGVPSRFSGSGSGTQYSLKINSLQSEDVASYFCQQYNKYPYTFGTGTKLELK
notes: rat IgG; also called BFX - 1E1
B2: 2B8-F3 anti-CD123 rat IgG (hybridoma supernatant) (antibody, V domains shown)
VH: EVQLVESGGGLVQPGRSLKLSCAASGFTFSDYNMAWVRQAPKKGLEWVATILYDGGRTYYRGSVKGRFTISRDNAKSTLYLRMDSLRSEDTATYYCATHSRGTDYFDYWGQGVMVTVSS
VL: EIVLTQSPTSMTASPGEQVTITCRASSSINYMHWYQQKPGASPRPWIYETSKLASGVPDRFSGSASGTSYSLTINNMEAEDAATYYCQQWNYPSWTFGGGTKLELK
notes: rat IgG; also called BFX - 2B8
B3: 2F8-D6 anti-CD123 rat IgG (hybridoma supernatant) (antibody, V domains shown)
VH: QVQLKESGPGLVQPSQTLSLTCTVSGFSLTSYGVSWVRQPPGKGLEWIATISSAGSTYYDLVLKSRLSITRDTSKSQVFLKVHSLQTEDTAIYLCARDAPVFNYGSYNAMDSWGQGTSVTVSS
VL: DIQMTQSPSFLSATVGDRVTINCKASQNINKYLNWYQQKLGEAPKRLIYNTNSLQTGIPSRFSGSGSGTDYTLTISSLQPEDVATYFCLQHKSGLTFGSGTKLEIK
notes: rat IgG; also called BFX - 2F8
B4: 3B10-E6 anti-CD123 rat IgG (hybridoma supernatant) (antibody, V domains shown)
VH: QVQLQQSGPELRRPGSSVRLSCKASGYRIKDFLIHWIKNRPEHGLEWIGWIDPEDGETKYAQKFQTKATLTADTSSNTAYMQLSSLTSEDTATYFCARWGDVYYGLMRGHVMDAWGQGTSVTVSS
VL: DVLMTQTPVSLPVSLGGQVSISCRSSQSLVHSDGDTYLHWYLQKPGQSPQLLIYRVSNRFSGVPDRFSGSGSGTDFTLKISRVEPEDLGLYYCLQTTHFPPWTFGGGTKLEMK
notes: rat IgG; also called BFX - 3B10
B5: 3E3-D3 anti-CD123 rat IgG (hybridoma supernatant) (antibody, V domains shown)
VH: QVQLQESGPGLVQPSQTLSLTCTVSGFSLTTYDVHWVRQPPGKGLEWMGRIQNGGITDYNSALKSRLIISRDTSKSQVFLKMNSVQTEDTAMYFCAKTGSYFYAFDHWGQGTLVTVSS
VL: QFVLTQPNSVSTNLGSTVKLSCKRNTGNIGSNYVNWYQQHEGRSPTTMIYRDDKRPDGVPDRFSGSIDRSSNSALLTINNVQTEDEADYFCQSYSSGINIIFGGGTKLTVL
notes: rat IgG; also called BFX - 3E3
B6: 5A5-B4 anti-CD123 rat IgG (hybridoma supernatant) (antibody, V domains shown)
VH: QIQIVQSGSDVTSTCNGCGTCYFSGFSLSTTGICVSWIRQPSGKGQEWLADFCWDDGKGYNPSLKNRLSISKDTSNNQVFLKITSVDTADTATYYCARRRVYYGIYFDYWGQGVMVTVSS
VL: DIVMTQSPALAVSPGERVSISCRASNSVSTRMHWYQQKPGQQPKLLIYGASNLESGVPARFSGSGSGTDFTLTIDPVEADDIATYFCQQSWNDPLTFGSGTKLEIK
notes: rat IgG; also called BFX - 5A5
B7: 6D6-B8 anti-CD123 rat IgG (hybridoma supernatant) (antibody, V domains shown)
VH: B1 VH with F25S, G26A, H32N, E46D, E62G, K63W, K65R, E89D, C94Y
VL: DIQMTQSPASLSASLGETVTIDCRPSEDIFNNLAWYQQKPGNSPQLLIYDANSLADGVPSRFSGSGSGTQYSLMIIRLQSEDVASYFCHQYNIYPYTFGAGTKLELK
notes: rat IgG; also called BFX - 6D6
B8: 10F4-C10 anti-CD3 antibody (hybridoma supernatant) (antibody, V domains shown)
VH: EVQLVETGGSLVQPGKSLKITCATSGFTFSNAWMHWVRQSPEKQLEWVAQIKAKSNNYATYYAESVKGRFTISRDDSKSSIYLQMNSLKEEDTAIYYCRAVNYGNYPLDYWGQGVMVTVSS
VL: DVVMTQTPVSLSVSLGGQVSISCRSSQSLVHNNGNTYLSWCLQKPGQSPQLLIYKVSNRFSGISDRFSGSGSGTDFTLKISRVEPDDLGVYYCGQGTQYPFTFGAGTKLELK
notes: rat IgG in hybridoma supernatant
B9: 18H11-F10 anti-CD3 antibody (hybridoma supernatant) (antibody, V domains shown)
VH: EVQLVESGGGLVQPGRSLKLSCAASGFIFSDYYMAWVRQAPKKGLEWVATISISGSRTYYPDSVKGRFTVSRDNAKSSLYLQMNSLKSEDTATYYCATNNPGGWFVYWGQGTLVTVSS
VL: NIQMTQSPSLLSASVGDRVTLSCKAGQNINNDLAWYQQKLGEAPRLLIYNANSLQTGIPSRFSGSGSGADFTLTISSLQPEDVATYFCQQYSSGDTFGAGTKLELK
notes: as for B8
B10: 20E5-F10 anti-CD3 antibody (hybridoma supernatant) (antibody, V domains shown)
VH: EVQLVETGENLVQPGKSLRLTCATSGFSFSNAWMHWIRQSPEKQLEWVAQIKDKSNNYATYYAESVNGRFTISRDDSKSSIYLHMDNLKEEDSAIYYCRYVHYGVRFFYTMDVWGQGTSVTVSS
VL: B8 VL with G17D, S25P, C41Y, Q50H, L51P, A105S, L111I
notes: as for B8
B11: 3H6-D2 anti-CD3 antibody (hybridoma supernatant) (antibody, V domains shown)
VH: EVQLVETGGRLVQPGKSLKLTCATSGFTFSNAWMHWVRQSPEKQLEWVAQIKDKSNNYATYYAESVKGRFTISRDDSKSIIYLQMNSLKEEDTAIYYCRALTYYGYKRDAMDGWGHGTSVTVSS
VL: B8 VL with C41Y
notes: as for B8
B12: 16F8-A7 anti-CD3 antibody (hybridoma supernatant) (antibody, V domains shown)
VH: VETGGNLVQPGKSLKLTCATSGFTFSNAWMHWVRQSPEKQLEWVAQIKAKSNNYATYYAESVKGRFTISRDDSKSSVYLQMNSLKEEDTAIYYCRYVNYGLAPMDVWGQGTSVTVSS
VL: B8 VL with C41Y, I63F
notes: as for B8
B13: 18G9-H11 anti-CD3 antibody (hybridoma supernatant) (antibody, V domains shown)
VH: EVQLVETGGSLVQPGKSLKLTCATSGFTFSNAWIQWVRQSPEKQLEWVAQIKAKSNNYATYYAESVKGRFTISRDDSKSSVYLQMNSLKEEDTALYYCTWRHYYSSHTMDAWGQGTLVTVSS
VL: B8 VL with C41Y, E84A, D86T, T97S
notes: as for B8
B14: 5B1-G2 Fab (Fab, V domains shown)
VH: EVQVVETGGSLVQPGKSLKLTCATSGFSFSNAWMHWVRQSPEKQLEWVAQIKDKANNYATYYAESVKGRFTISRDDSKGSIYLQMNSLKEEDTAVYYCRGLYYGLFPSDYWGQGVMVTVSS
VL: B8 VL with C41Y, Q43L, S70G, V83L, V90I, A105S, L111I
B15: 12D2-E5 Fab (Fab, V domains shown)
VH: EVKLVESGGGLVQPGRSLRLSCAASGFNFYAYWMGWVRQAPGKGLEWIGEIKKDGTTINYTPSLKDRFTISRDNAQNTLYLQMTKLGSEDTALYYCAREERDGYFDYWGQGVMVTVSS
VL: QFVLTQPNSVSTNLGSTVKLSCKRSTGNIGSNYVNWYQQHEGRSPTTMIYRDDKRPDGVPDRFSGSIDRSSNSALLTINNVQTEDEADYFCQSYSSGIVFGGGTKLTVL

target: T1, human CD123 (IL3RA) on cells (human, UniProt P26951 19-378); assay: flow cytometry, CD123 transfected HEK293, hybridoma supernatant
T1 construct: also called CD123 transfected HEK293; THP-1
T1 sequence (P26951 19-378): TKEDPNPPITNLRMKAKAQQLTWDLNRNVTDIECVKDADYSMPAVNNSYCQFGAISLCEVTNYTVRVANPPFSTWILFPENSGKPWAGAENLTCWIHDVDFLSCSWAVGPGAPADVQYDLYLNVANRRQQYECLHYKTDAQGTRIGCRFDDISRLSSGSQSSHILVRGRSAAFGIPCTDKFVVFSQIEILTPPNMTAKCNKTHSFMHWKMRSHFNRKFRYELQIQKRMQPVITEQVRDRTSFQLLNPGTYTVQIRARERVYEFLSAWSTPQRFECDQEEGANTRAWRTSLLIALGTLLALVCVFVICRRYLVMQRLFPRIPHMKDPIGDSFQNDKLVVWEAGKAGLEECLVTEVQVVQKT
Protocol: Cells were resuspended in 200 μl Stain Buffer with FBS per well and were measured using the MACSQuant (Miltenyi Biotec) or LSRII (BD) flow cytometer. Further data analyses were performed using the FlowJo software (Tree Star, Inc.). Read out was percentage of cells positive for antibody binding. Cells treated only with the secondary but no primary antibody were used to set the gates. Curves were calculated by XLfit (Algorithm 205).

First: B1
Second: B2
The EC50 of the first is 2.5-fold lower: 2.2 ng/mL for the first, 5.5 ng/mL for the second.

Compared with B3, B4 is 1.7-fold lower in EC50: 3.4 ng/mL for the first, 2 ng/mL for the second.

Going from B5 to B6, the EC50 rises from 2 ng/mL to 10.1 ng/mL (5-fold).

B7 gave an EC50 of 0.9 ng/mL.

target: T2, human CD3ε/δ-Fc fusion protein (soluble recombinant CD3ε/δ complex) (human, UniProt P04234 22-105); assay: SPR single point, hybridoma supernatant
T2 construct: also called huCD3ε/δ; huCD3; not shown: hinge, CH2, CH3 of human IgG with tag
T2 sequence (chain, as listed by the source mutant, chain 1 of 2): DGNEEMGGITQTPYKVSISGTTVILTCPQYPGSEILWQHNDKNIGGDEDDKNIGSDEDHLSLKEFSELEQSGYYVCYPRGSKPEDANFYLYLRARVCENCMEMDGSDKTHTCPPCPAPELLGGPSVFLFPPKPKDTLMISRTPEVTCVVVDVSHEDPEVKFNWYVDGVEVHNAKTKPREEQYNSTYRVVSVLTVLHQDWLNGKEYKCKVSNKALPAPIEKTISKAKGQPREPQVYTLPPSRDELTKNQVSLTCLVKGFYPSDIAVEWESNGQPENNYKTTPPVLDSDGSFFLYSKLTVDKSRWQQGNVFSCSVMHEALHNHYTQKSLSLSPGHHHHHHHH
T2 sequence (P04234 22-105, stated change not applied, chain 2 of 2): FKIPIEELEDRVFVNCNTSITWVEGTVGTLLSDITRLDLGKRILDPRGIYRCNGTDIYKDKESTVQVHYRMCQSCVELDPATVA
Protocol: Rats with positive sera were scarified and B cells were fused with mouse myeloma cells. The resulting hybrndomas were screened on HEK293 cells transfected with human or cynomoligus CD3ε and CD3δ expression plasmids, on Jurkat E6.1 (CD3+) and Jurkat T3.5 (CD3-) by flow cytometry. Supernatant of Hybridoma clones was used to assess by surface plasmon resonance single point kinetic against human and Macaca fascicularis CD3ε/δ complex by fixing the analyte at 25 nM (data presented in table 3).

First: B8
Second: B9
The “RU at 25 nM” value of the first is lower: 22 RU for the first, 35 RU for the second.

Going from B10 to B11, the “RU at 25 nM” value falls from 12 RU to 9.5 RU.

Going from B12 to B13, the “RU at 25 nM” value falls from 17.5 RU to 7 RU.

target: T3, human CD3δ expressed alone on HEK293F cells (human, UniProt P04234 22-171); assay: flow cytometry, HEK293F transfected with huCD3δ
T3 construct: entry includes the signal peptide; also called huCD3δ
T3 sequence (P04234 22-171 limits assumed, stated change not applied): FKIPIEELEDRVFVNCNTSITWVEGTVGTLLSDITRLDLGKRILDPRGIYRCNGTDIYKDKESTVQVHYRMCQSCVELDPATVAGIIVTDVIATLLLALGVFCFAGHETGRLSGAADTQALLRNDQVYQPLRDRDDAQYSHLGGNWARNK
Protocol: To analyze binding of antibodies to human CD3ε and human CD3δ expressed on the surface of cells, HEK293F cells were transfected with both constructs either alone or in co-transfection and signals were measured by flow cytometry. For transfection procedure FuGENE HD Transfection Reagent (Promega, #E2311) was used according to manufacturer's protocol.
Cells were incubated on a shaker at 37° C. and 5% CO2. At day one to three after transfection cells were harvested and binding of antibodies was analyzed by flow cytometry.
Antibodies for staining were seeded at 1 μg in 50 μl per well Stain Buffer with FBS (BD Pharmingen) in 96-well U-bottom suspension culture plates (Greiner bio-one). Harvested transfected cells were resuspended in Stain Buffer with FBS and were added at 50 μl per well to the antibodies. Cells were incubated at 4° C. in the dark for 30 min and were washed twice. 0.5 μg secondary antibody Goat F(ab′)2 Anti-Human IgG-FITC (Beckman Coulter, #732598) or Goat F(ab′)2 Anti-Human kappa-PE (Southern Biotech, #206209), respectively, in combination with 0.5 μg 7-AAD per well was added in 100 μl Stain Buffer with FBS. Cells were incubated at 4° C. in the dark for 15 min and were washed twice. For measurement, cells were resuspended in 200 μl Stain Buffer with FBS. Cells were measured using the MACSQuant (Miltenyi Biotec) or LSRII (BD) flow cytometer, respectively. Further data analyses were performed using the FlowJo software (Tree Star, Inc.).

B14: no binding (tested: <20% of binding of huCD3e + huCD3d).
B15: no binding (tested: <20% of binding of huCD3e + huCD3d).

target: T4, Macaca fascicularis CD123 Fc-fusion protein (Macaca fascicularis); assay: SPR Proteon XPR36, rat IgG captured, CD123-Fc analyte
T4 construct: also called cyno CD123-Fc
T4 sequence (chain, as listed by the source limits assumed): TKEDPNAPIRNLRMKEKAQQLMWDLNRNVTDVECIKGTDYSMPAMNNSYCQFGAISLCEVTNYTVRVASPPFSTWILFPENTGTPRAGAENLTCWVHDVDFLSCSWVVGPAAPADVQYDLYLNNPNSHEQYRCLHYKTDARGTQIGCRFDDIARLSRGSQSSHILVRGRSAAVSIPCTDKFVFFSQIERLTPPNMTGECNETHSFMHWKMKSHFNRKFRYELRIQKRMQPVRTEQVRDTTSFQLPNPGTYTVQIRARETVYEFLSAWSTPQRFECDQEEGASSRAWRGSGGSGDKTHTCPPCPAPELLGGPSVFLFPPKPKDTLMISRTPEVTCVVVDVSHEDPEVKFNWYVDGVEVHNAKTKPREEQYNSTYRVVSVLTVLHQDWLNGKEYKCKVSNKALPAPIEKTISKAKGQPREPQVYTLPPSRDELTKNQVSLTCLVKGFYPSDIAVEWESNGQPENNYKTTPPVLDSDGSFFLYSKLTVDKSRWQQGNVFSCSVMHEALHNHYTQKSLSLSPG
Protocol: (§1) Screening of anti-CD123 rat IgGs for binding affinities to human CD123 and cross-reactivities to cyno CD123 was performed with hybridoma supernatants using a Proteon XPR36 (Biorad) in a one-shot kinetics approach. A capture assay was established using a goat anti-rat IgG (112-005-071, Jackson Immuno Research). The capture antibody was coated on GLC chips (176-5011, Biorad) to approx. 8000 RU in the vertical direction using the amine coupling kit (176-2410, Biorad). […] Binding kinetics with human and cyno CD123-Fc fusion protein was measured at 100 μl/min in the horizontal direction with 120 sec. and 600 sec. for association and dissociation, respectively. The CD123-Fc proteins were used in twofold dilutions from 6 nM to 100 nM. PBSET buffer (176-2730, Biorad) was used as assay buffer. Regeneration was achieved by injection of 10 mM Glycine buffer pH 1.5 for 18 sec at 30 μl/min. Data processing and analysis was performed using ProteonManager software v3.0. Fitting of the sensorgrams was done with a 1:1 Langmuir model.

B1 and B2 are within 1.5-fold of each other in Kd: 720 pM for the first, 770 pM for the second.

First: B3
Second: B4
The Kd of the first is 1.9-fold higher: 510 pM for the first, 270 pM for the second. The second binds more tightly here.

Going from B5 to B6, the Kd falls from 120 pM to 50 pM (2.4-fold).

target: T5, human CD123 Strep-II tagged Fc-fusion protein (human); assay: as above
T5 construct: also called human CD123-Fc; recombinant CD123
T5 sequence (chain, as listed by the source limits assumed): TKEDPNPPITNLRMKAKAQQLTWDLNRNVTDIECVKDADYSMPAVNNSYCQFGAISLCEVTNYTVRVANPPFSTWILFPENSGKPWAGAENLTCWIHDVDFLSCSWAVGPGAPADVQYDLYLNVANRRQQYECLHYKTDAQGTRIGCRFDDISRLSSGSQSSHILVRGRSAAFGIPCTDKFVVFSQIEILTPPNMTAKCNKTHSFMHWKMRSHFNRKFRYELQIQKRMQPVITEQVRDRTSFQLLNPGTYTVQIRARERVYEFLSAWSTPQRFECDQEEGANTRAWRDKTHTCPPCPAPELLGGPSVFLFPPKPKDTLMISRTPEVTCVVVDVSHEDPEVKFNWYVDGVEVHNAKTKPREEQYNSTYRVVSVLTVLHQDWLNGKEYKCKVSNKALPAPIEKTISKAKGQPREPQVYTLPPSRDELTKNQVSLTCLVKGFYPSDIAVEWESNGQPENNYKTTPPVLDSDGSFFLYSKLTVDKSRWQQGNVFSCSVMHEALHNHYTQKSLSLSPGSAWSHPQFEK
Protocol: as §1

First: B1
Second: B2
The Kd of the first is 13-fold higher: 230 pM for the first, 18 pM for the second. The second binds more tightly here.

B3 and B5 are within 1.5-fold of each other in Kd: 530 pM for the first, 400 pM for the second.

B6 was tested, and the Kd was 1100 pM.

Going from B1 to B2, the koff falls from 0.00011 s⁻¹ to 1.2e-05 s⁻¹ (9.2-fold).

B3 and B5 are within 1.5-fold of each other in koff: 6.6e-05 s⁻¹ for the first, 6.4e-05 s⁻¹ for the second.

B6 was tested, and the koff was 0.00012 s⁻¹.

B1 and B2 are within 1.5-fold of each other in kon: 460000 M⁻¹ s⁻¹ for the first, 660000 M⁻¹ s⁻¹ for the second.

B3 and B5 are within 1.5-fold of each other in kon: 130000 M⁻¹ s⁻¹ for the first, 160000 M⁻¹ s⁻¹ for the second.

B6 showed a kon of 130000 M⁻¹ s⁻¹.
